Experiment [1] concerns the target HLA-A*02:01 (Homo sapiens, UniProt P04439, D140Y/D185E/D98H/E176V/E277Q/G131W/G231S/I119V/I121R/I166T/I218V/L300P/L318F/N151K/N90K/P208A/P217A/Q86G/Q94H/R138H/R169H/T345S). Briefly: MHC binding assay (UV-ligand exchange, β2m ELISA). The settings on record: for Peptide exchange: peptide exchange yield, binding to HLA-A*02:01. On the technique in general: ELISA stands for enzyme-linked immunosorbent assay.

In experiment [2] the test system is CD8+ T cells. The experiment is described as follows: In vitro immunogenicity: T-cell priming with aAPCs loaded with peptide/MHC and anti-CD28, multimer readout. It counts as cell-based, human.
Experiment [3] deals with HLA-A*24:02 (Homo sapiens, UniProt P04439, D101N/D140Y/D185E/E176V/E190D/F33S/G103R/G107R/I119L/I121M/I306V/K335N/L105A/L180Q/L300P/N151K/N90K/Q86E/Q94H/R106L/R138H/R89G/T104I/T345S/V100E/W191G/Y123F). Briefly: MHC binding assay (UV-ligand exchange, β2m ELISA). The following applies: for Peptide exchange: peptide exchange yield, binding to HLA-A*24:02.

With “51 (ALAAELNQL; listed as Homo sapiens) [compound 51]”, the Peptide exchange result in experiment [1] was ““+++” (>50 = +++)”.
On the same count and under the same terms, with “46 (VLITGLPLI; listed as Homo sapiens) [compound 46]” the entry was ““++++” (>75% = ++++)”.
“138 (KYLSIPTVF; listed as Homo sapiens) [compound 138]”: the “Wells positive [%]” value in experiment [2] (HLA A*24) was ““+” (<20% = +)”. The Peptide exchange result in experiment [3] is on record as ““++++” (>75% = ++++)”.
“61 (RLFGLFLNNV; listed as Homo sapiens) [compound 61]”: the Peptide exchange result in experiment [1] is on record as ““++++” (>75% = ++++)”.
With “53 (LLMTSLTES; listed as Homo sapiens) [compound 53]”, the Peptide exchange result in experiment [1] is ““+++” (>50 = +++)”.
In the case of “251 (RLASRPLLL; listed as Homo sapiens) [compound 251]”, the Peptide exchange entry in experiment [1] was ““+++” (>50 = +++)”.
Turning to “137 (KYLSLSNSF; listed as Homo sapiens) [compound 137]”, the Peptide exchange entry in experiment [3] is reported as ““++++” (>75% = ++++)”.
In the case of “40 (KIDDIWNLEV; listed as Homo sapiens) [compound 40]”, the Peptide exchange result in experiment [1] is ““+++” (>50 = +++)”.
For the substance “57 (GLTGVIMTI; listed as Homo sapiens) [compound 57]”, the “Wells positive [%]” value in experiment [2] (HLA A*02) is on record as ““++++” (>= 70% = ++++)”. Besides, the Peptide exchange result in experiment [1] is ““++++” (>75% = ++++)”.
“127 (IFINLSPEF; listed as Homo sapiens) [compound 127]”: the Peptide exchange entry in experiment [3] is reported as ““++++” (>75% = ++++)”.
With “56 (FLNQIYTQL; listed as Homo sapiens) [compound 56]”, the “Wells positive [%]” value in experiment [2] (HLA A*02) is recorded as ““+++” (50%-69% = +++)”. For the same substance, the Peptide exchange result in experiment [1] is on record as ““++++” (>75% = ++++)”.
As for “115 (YFEEAANFL; listed as Homo sapiens) [compound 115]”, the Peptide exchange entry in experiment [3] is listed as ““++” (>20% = ++)”.
On to “42 (KMMALVAEL; listed as Homo sapiens) [compound 42]”, for which the “Wells positive [%]” value in experiment [2] (HLA A*02) is reported as ““++++” (>= 70% = ++++)”. Besides, the Peptide exchange result in experiment [1] is ““++++” (>75% = ++++)”.
Turning to “125 (IYGPKYIHPSF; listed as Homo sapiens) [compound 125]”, the Peptide exchange result in experiment [3] is recorded as ““++++” (>75% = ++++)”.
With “41 (SLQDTKITL; listed as Homo sapiens) [compound 41]”, the Peptide exchange result in experiment [1] was ““+++” (>50 = +++)”.
Still for that read-out and setting: with “54 (YLPPTDPRMSV; listed as Homo sapiens) [compound 54]” the entry was ““++++” (>75% = ++++)”.
Consider “50 (ELMPRVYTL; listed as Homo sapiens) [compound 50]”, for which, in experiment [2] (HLA A*02), the “Wells positive [%]” value is given as ““+” (<20% = +)”. Further, the Peptide exchange entry in experiment [1] is on record as ““+++” (>50 = +++)”.
On the same counts, the results for “60 (GLPDFVKEL; listed as Homo sapiens) [compound 60]” are ““++” (20%-49% = ++)” and ““++++” (>75% = ++++)”.
“130 (VYGDGHYLTF; listed as Homo sapiens) [compound 130]”: in experiment [3], the Peptide exchange entry is given as ““+++” (>50 = +++)”.
Regarding “DYIPYVFKL (listed as Homo sapiens) [SEQ ID NO: 268]”, the “bind to HLA-A*24” value in experiment [3] is given as “binds to HLA-A*24”.
In the case of “43 (GLMTIVTSL; listed as Homo sapiens) [compound 43]”, in experiment [2] (HLA A*02), the “Wells positive [%]” value is ““++” (20%-49% = ++)”. The Peptide exchange result in experiment [1] is ““++++” (>75% = ++++)”.
On to “250 (KMILKMVQL; listed as Homo sapiens) [compound 250]”, for which the “Wells positive [%]” value in experiment [2] (HLA A*02) is ““++” (20%-49% = ++)”. For the same substance, the Peptide exchange entry in experiment [1] is given as ““+” (>10% = +)”.
In the case of “52 (YVSSGEMMV; listed as Homo sapiens) [compound 52]”, the Peptide exchange entry in experiment [1] is reported as ““+++” (>50 = +++)”.
The same measure, in the same setting: with “55 (RLWQIQHHL; listed as Homo sapiens) [compound 55]” the entry was ““+++” (>50 = +++)”.
For “KTLGKLWRL (listed as Homo sapiens) [SEQ ID NO: 267]”, the “bind to HLA-A*02” value in experiment [1] was “binds to HLA-A*02”.
“59 (KLHEIYIQA; listed as Homo sapiens) [compound 59]”: the Peptide exchange result in experiment [1] was ““++++” (>75% = ++++)”.
On to “120 (MYAKEFDLL; listed as Homo sapiens) [compound 120]”, for which the Peptide exchange result in experiment [3] was ““+++” (>50 = +++)”.
Take “39 (YLLPSVVLL; listed as Homo sapiens) [compound 39]”: the Peptide exchange result in experiment [1] is reported as ““++++” (>75% = ++++)”.
Regarding “249 (ALFPERITV; listed as Homo sapiens) [compound 249]”, the “Wells positive [%]” value in experiment [2] (HLA A*02) is ““++” (20%-49% = ++)”. In addition, the Peptide exchange result in experiment [1] is reported as ““++++” (>75% = ++++)”.
Regarding “128 (SYTKVEARL; listed as Homo sapiens) [compound 128]”, in experiment [3], the Peptide exchange result was ““+++” (>50 = +++)”.
In the case of “47 (YQDSWFQQL; listed as Homo sapiens) [compound 47]”, the Peptide exchange entry in experiment [1] is recorded as ““+++” (>50 = +++)”.
Turning to “44 (SQTGFVVLV; listed as Homo sapiens) [compound 44]”, in experiment [1], the Peptide exchange entry is recorded as ““++” (>20% = ++)”.
As to “141 (KYLSIPAVFF; listed as Homo sapiens) [compound 141]”, the Peptide exchange result in experiment [3] is listed as ““++++” (>75% = ++++)”.
Same read-out and setting: with “139 (PYASLASELF; listed as Homo sapiens) [compound 139]” the entry was ““++++” (>75% = ++++)”.
For “45 (KLLDEVTYL; listed as Homo sapiens) [compound 45]”, the Peptide exchange entry in experiment [1] was ““+++” (>50 = +++)”.
Turning to “140 (KYLSIPAVF; listed as Homo sapiens) [compound 140]”, the Peptide exchange result in experiment [3] is ““++++” (>75% = ++++)”.
Same read-out and setting: with “116 (LVLDYSKDYNHW; listed as Homo sapiens) [compound 116]” the entry was ““+” (>10% = +)”; with “133 (SFDSNLLSF; listed as Homo sapiens) [compound 133]”, ““+” (>10% = +)”.
The same measure, in the same setting: with “123 (RQYLAINQI; listed as Homo sapiens) [compound 123]” the entry was ““+” (>10% = +)”.
Turning to “38 (VMLNSNVLL; listed as Homo sapiens) [compound 38]”, in experiment [2] (HLA A*02), the “Wells positive [%]” value was ““+” (<20% = +)”. The Peptide exchange entry in experiment [1] is ““++++” (>75% = ++++)”.

The values above are taken from US20200339657A1, “PEPTIDES AND COMBINATION THEREOF FOR USE IN THE IMMUNOTHERAPY AGAINST CANCERS” (Immatics Biotechnologies GmbH, priority 2017, published 2020).
